According to US20250230254A1 (Janssen / Centocor, published 2025):

B1: KL2B870 (KL2B30 in hIgG1-RE) (antibody)
heavy: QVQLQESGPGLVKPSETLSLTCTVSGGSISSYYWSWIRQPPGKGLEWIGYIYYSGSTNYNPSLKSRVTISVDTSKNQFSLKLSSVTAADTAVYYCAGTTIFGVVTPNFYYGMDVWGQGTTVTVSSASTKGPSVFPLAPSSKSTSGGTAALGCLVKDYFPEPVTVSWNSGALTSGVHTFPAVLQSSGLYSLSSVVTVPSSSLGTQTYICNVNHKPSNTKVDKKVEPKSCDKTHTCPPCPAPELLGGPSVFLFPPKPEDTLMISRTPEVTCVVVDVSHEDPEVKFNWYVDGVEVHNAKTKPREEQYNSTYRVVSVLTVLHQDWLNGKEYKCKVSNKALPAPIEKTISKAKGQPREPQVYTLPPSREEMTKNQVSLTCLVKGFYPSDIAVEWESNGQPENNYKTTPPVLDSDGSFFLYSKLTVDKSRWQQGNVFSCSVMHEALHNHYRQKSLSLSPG
light: DIQMTQSPSFLSASVGDRVTITCRASQGISSYLAWYQQKPGKAPKFLIYAASTLQSGVPSRFSGSGSGTEFTLTISSLQPEDFATYYCQQLNSYPLTFGGGTKVEIKRTVAAPSVFIFPPSDEQLKSGTASVVCLLNNFYPREAKVQWKVDNALQSGNSQESVTEQDSKDSTYSLSSTLTLSKADYEKHKVYACEVTHQGLSSPVTKSFNRGEC
B2: KL2B872.CLF (antibody, human IgG1, kappa)
heavy: not shown
light: B1 light
modifications: low fucosylation of the Fc oligosaccharide (less than 10% fucosylation)
B3: KL2B870.CLF (antibody, human IgG1, kappa)
heavy: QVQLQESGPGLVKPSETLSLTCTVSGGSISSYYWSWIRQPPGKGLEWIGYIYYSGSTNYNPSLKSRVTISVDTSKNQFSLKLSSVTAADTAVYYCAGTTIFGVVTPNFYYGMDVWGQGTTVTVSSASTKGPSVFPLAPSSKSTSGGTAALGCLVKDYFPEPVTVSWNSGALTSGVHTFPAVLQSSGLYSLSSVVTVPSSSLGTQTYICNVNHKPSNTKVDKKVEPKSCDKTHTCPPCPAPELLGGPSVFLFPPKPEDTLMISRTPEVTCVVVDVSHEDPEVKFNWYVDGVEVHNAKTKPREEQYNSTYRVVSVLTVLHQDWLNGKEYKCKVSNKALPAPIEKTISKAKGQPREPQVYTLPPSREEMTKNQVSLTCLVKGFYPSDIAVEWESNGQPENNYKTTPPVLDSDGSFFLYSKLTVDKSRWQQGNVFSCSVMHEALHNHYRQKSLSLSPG
light: B1 light
modifications: low fucosylation of the Fc oligosaccharide (less than 10% fucosylation)

target: T1, KLK2 (UniProt P20151 25-261, limits assumed); experiment: cell-based or functional assay
T1 sequence (P20151 25-261 limits assumed): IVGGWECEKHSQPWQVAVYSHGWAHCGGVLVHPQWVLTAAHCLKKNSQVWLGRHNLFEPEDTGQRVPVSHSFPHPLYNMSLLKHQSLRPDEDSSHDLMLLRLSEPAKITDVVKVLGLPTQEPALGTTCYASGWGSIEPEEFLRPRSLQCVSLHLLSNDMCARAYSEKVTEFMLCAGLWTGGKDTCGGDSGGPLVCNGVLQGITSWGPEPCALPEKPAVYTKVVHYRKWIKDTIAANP

Binder	ADCC activity, percent cell killing of VCaP cells by PBMC [%]
B1	~73
B2	~85
B3	~89

target: T1, KLK2; experiment: cell-based or functional assay; remark: another data set of the same source

Binder	ADCC killing EC50 (M), PBMC effector cells on VCaP cells, 48 hours [M]
B1	1e-09
B2	4.12e-10
B3	3.54e-10
